From US20240270874A1

Assays:
Test in all cases: cell-based or functional assay
[1] = biological target: human KLB & human FGFR3c on L6 cells (human) (UniProt Q86Z14)
[2] = biological target: human KLB & human FGFR4 on L6 cells (human) (UniProt Q86Z14)
[3] = biological target: human FGFR1c on cells (human) (UniProt P11362)
[4] = biological target: human KLB&FGFR1c complex on cells (human) (UniProt Q86Z14)
Sequence of human KLB&FGFR1c complex on cells (human) (Q86Z14 whole entry, chain 1 of 2): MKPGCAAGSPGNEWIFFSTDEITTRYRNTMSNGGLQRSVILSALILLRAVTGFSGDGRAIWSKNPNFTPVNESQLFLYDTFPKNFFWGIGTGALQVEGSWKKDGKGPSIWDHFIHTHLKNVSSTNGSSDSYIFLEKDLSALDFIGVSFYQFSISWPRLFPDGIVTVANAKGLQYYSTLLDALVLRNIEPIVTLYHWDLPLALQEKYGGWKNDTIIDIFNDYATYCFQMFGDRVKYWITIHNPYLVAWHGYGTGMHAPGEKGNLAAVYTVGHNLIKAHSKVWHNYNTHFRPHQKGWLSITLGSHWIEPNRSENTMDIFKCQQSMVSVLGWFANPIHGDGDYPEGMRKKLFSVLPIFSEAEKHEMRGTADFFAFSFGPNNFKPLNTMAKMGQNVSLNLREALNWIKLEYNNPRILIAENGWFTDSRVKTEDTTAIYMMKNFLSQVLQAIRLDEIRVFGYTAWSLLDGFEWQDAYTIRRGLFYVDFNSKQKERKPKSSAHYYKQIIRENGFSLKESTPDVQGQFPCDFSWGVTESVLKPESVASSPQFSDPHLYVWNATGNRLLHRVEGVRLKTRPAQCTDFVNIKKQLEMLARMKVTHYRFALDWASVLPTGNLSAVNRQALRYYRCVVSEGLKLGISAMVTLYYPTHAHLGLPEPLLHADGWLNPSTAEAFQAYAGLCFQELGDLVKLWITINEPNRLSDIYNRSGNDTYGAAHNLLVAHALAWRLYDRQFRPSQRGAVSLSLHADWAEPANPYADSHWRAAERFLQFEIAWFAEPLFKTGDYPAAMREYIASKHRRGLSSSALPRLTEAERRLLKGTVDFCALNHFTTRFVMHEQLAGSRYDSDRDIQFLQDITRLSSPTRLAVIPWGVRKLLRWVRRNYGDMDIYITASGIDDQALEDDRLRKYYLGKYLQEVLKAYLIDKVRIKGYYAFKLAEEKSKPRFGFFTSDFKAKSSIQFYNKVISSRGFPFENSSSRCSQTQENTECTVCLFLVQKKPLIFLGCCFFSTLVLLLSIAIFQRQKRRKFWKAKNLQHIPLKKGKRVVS
Sequence of human KLB&FGFR1c complex on cells (human) (P11362 22-822, chain 2 of 2, further chain): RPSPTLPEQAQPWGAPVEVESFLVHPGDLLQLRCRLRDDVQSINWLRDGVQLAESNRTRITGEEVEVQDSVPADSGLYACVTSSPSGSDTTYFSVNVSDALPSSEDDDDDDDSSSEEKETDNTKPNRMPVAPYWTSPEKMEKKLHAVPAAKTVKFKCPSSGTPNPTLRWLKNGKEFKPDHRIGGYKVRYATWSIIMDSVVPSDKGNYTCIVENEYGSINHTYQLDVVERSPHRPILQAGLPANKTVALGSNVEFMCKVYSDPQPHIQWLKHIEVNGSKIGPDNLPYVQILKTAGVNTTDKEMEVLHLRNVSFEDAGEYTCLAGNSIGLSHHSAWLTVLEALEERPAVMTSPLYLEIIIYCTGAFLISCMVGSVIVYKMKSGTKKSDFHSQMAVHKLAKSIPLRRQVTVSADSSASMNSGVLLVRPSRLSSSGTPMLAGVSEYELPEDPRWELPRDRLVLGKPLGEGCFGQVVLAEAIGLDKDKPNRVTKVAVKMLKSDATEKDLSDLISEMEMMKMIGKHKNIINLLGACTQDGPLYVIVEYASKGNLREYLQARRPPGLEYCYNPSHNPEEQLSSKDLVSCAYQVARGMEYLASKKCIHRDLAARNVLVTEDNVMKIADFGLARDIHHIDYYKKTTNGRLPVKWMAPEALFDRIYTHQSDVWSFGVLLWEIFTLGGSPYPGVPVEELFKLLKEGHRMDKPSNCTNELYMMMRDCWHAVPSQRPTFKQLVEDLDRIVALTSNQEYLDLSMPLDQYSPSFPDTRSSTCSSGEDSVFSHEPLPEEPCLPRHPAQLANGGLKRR

Sequence of human FGFR1c on cells (human) (P11362 22-822): as the sequence (P11362 22-822, chain 2 of 2, further chain) above
Sequence of human KLB & human FGFR3c on L6 cells (human) (Q86Z14 whole entry, chain 1 of 2): as the sequence (Q86Z14 whole entry, chain 1 of 2) above
Sequence of human KLB & human FGFR3c on L6 cells (human) (P22607 23-806, chain 2 of 2, further chain): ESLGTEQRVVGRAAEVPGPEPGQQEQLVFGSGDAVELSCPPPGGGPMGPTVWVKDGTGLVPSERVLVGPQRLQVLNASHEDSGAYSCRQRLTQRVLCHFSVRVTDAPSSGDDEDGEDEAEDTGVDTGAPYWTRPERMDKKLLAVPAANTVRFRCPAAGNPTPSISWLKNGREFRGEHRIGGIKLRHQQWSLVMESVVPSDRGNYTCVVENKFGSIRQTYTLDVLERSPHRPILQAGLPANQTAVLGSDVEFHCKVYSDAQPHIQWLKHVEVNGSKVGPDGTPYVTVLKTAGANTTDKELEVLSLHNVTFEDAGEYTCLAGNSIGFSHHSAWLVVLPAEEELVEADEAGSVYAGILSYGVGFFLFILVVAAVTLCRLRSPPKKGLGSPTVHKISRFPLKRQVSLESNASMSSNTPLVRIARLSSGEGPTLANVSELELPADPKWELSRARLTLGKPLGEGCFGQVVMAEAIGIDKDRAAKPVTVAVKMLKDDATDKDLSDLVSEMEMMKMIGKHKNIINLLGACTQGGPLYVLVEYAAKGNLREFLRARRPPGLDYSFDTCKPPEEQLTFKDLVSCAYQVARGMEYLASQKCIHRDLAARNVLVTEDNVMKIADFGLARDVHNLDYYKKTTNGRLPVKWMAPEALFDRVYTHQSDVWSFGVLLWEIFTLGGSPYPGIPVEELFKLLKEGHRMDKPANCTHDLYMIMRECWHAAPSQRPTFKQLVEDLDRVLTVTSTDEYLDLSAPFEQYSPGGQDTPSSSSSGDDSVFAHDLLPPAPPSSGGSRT
Sequence of human KLB & human FGFR4 on L6 cells (human) (Q86Z14 whole entry, chain 1 of 2): as the sequence (Q86Z14 whole entry, chain 1 of 2) above
Sequence of human KLB & human FGFR4 on L6 cells (human) (P22455 22-802, chain 2 of 2, further chain): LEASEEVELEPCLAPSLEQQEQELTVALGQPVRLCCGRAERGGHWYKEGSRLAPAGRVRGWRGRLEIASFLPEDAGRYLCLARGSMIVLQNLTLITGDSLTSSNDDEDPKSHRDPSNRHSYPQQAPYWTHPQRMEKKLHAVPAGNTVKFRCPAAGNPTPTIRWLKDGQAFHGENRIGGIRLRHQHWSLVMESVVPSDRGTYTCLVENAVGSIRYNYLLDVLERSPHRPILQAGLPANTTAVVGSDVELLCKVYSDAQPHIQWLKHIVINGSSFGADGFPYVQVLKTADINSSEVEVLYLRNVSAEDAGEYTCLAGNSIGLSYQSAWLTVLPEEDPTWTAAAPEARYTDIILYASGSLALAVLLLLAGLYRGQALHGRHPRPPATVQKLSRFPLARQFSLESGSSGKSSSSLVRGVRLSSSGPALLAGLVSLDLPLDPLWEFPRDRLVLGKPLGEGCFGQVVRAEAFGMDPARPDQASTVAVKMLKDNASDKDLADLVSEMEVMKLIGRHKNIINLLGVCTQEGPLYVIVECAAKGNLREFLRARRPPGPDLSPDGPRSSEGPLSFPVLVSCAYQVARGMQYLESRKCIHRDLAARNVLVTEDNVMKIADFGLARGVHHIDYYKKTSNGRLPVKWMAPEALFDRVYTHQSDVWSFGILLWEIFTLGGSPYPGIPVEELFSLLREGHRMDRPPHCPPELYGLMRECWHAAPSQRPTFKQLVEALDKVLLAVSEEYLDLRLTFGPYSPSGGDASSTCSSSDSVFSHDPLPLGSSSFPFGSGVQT

Q: Which Activation fold, pERK/total ERK in L6-hKLB&hFGFR3c cells [1] does the source give for AKR001 (ligand) here?
A: 10.2 fold

Q: What about the Activation fold, pERK/total ERK in L6-hKLB&hFGFR4 cells [2] of the same substance?
A: 2.11 fold

Q: “FGF2 (Sino Biological, 10014-HNAE) (from UniProt P09038 143-288) (ligand)” was tested. Which Activation fold, SRE-Luc2P reporter in HEK293-hFGFR1c cells [3] did it give?
A: 11.6 fold

Q: MK3655 (antibody) was tested. Which Activation fold, GAL4-Elk1 luciferase reporter in CHOK1-hKLB&hFGFR1c cells [4] did it give?
A: 5.62 fold

Q: What about the Activation fold, SRE-Luc2P reporter in HEK293T-hKLB&hFGFR1c cells [4] of the same substance?
A: 1.65 fold

Q: And the EC50 (nM), GAL4-Elk1 luciferase reporter in CHOK1-hKLB&hFGFR1c cells [4]?
A: 0.64 nM

Q: And the EC50 (nM), SRE-Luc2P reporter in HEK293T-hKLB&hFGFR1c cells [4]?
A: 5.06 nM
